From patent publication WO2008074868A1 (dated 2008)

Columns and labels:
[1] = molecular target: T1, human plgR overexpressed in MDCK cells (human, UniProt P01833 19-764); assay: immunoprecipitation from cell lysates with His-tagged Nanobody and talon beads, blot with a-hSC
T1 construct: whole, on cells; also called hpIgR; human polymeric immunoglobulin receptor

human serum albumin [2] = molecular target: T2, human serum albumin (human, UniProt P02768 25-609); assay: SPR (Biacore T100), periplasmic extracts over immobilized human serum albumin, pH 7 and pH 5
T2 construct: also called HSA

[3] = molecular target: T3, ectodomain of human plgR (R&D Systems Cat # 2717-PG) (human, UniProt P01833 19-638); assay: competition ELISA, dilution series of purified Nanobody against IgA on immobilized plgR ectodomain
T3 construct: extracellular domain; Immobilized at 5 ug/ml on Maxisorp plates; also called plgR ectodomain; pIgR

human serum albumin [4] = molecular target: T2, human serum albumin; assay: SPR (Biacore T100), periplasmic extracts over immobilized human serum albumin
human serum albumin [5] = molecular target: T2, human serum albumin; assay: SPR (Biacore T100) over immobilized human serum albumin, pH 7, pH 6 and pH 5
[6] = molecular target: T1, human plgR overexpressed in MDCK cells; assay: immunofluorescence on MDCK cells overexpressing human plgR, 3 uM Nanobody at 4C

T3 sequence (P01833 19-638): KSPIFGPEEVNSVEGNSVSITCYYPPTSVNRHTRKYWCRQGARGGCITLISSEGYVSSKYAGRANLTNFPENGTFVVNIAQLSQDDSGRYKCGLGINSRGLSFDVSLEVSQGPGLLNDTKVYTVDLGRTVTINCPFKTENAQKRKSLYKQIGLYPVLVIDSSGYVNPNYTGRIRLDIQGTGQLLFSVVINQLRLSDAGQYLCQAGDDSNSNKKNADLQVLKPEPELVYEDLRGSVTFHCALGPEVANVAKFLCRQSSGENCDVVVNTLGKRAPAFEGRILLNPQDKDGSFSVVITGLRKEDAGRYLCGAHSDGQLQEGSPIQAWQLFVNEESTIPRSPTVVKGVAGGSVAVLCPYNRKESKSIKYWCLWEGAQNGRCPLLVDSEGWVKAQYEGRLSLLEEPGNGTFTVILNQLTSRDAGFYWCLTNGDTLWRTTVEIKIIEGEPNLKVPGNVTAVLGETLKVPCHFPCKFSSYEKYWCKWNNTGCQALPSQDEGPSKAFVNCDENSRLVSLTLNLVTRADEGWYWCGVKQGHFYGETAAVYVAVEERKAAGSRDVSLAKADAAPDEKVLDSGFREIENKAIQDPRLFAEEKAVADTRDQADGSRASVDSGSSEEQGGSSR
T1 sequence (P01833 19-764): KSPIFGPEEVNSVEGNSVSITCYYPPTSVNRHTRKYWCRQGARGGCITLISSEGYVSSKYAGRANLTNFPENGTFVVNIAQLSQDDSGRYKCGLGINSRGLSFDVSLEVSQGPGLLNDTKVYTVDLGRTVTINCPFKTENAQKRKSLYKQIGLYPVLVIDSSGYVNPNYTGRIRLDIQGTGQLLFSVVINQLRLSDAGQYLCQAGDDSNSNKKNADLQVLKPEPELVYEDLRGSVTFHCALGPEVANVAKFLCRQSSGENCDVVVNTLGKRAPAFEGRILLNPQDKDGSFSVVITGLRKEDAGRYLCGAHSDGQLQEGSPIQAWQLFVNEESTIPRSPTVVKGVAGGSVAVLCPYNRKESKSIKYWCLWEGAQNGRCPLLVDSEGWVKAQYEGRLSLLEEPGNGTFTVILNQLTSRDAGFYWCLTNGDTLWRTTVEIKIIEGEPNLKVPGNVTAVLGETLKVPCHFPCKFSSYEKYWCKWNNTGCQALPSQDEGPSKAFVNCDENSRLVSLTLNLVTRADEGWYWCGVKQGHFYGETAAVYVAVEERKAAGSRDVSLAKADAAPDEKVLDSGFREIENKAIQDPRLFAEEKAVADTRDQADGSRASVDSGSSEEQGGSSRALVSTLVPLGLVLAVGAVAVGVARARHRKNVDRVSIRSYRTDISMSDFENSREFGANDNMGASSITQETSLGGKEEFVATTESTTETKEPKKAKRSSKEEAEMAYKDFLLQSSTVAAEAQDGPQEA

B1: 4B7 (VHH)
VHH: EVQLVESGGGLVQAGGSLRLSCAASGFTFDDYAIGWFRQAPGKEREGVSCISSRDGITYYADSVKGRFTISSDNAKNTVYLQMNSLKPEDTAVYYCAADLVGSFPCPVAAYDYWGQGTQVTVSS
binding result [1]: binds

B2: 4A9 (VHH)
VHH: EVQLVESGGGLVQAGGSLRLSCEASGFTLDYSGVGWFRQAPGKERELVSCISRGGDRAGYANSVKGRFTMSRDNAKNILYLQMNSLKPEDTAVYYCAATHSGSGCYDGAIDYWGKGTLVTVSS
fold difference in off rate (pH 5 against pH 7) (human serum albumin [2]): 0.54 fold

B3: 1D7 (VHH)
VHH: EVQLVESGGGLVQSGGSLRLSCAASGRAFNYYAMGWFRQAPGKERELVAVINWSGGTTSYADSVKGRFTISRSNAKNTVYLQMSSLKPEDTAVYYCAADSIYRTSKDYNYWGQGTQVTVSS
binding result [1]: binds | binding result [3]: binds

B4: 4C3 (VHH)
VHH: EVQLVESGGGLVQAGGSLRLSCAASGRTFSSYAMAWFRQAPGEEREFVATISVSGGYTYYADSVKGRFTISRDNAKNTVYLQMNTLKPEDTAVYYCAAGDSSSWLEHMYDYWGQGTQVTVSS
notes: Tested as periplasmic extract
binding result (human serum albumin [4]): binds

B5: 4B10 (VHH)
VHH: EVQLVESGGGLVQAGDSLRLSCAASGRTFSSYAMGWFRQAPGTERQFVARITGKGDSTDYADSVRGRFTISRDNAKNTVYLQMNSLKPEDTAVYYCAADAFNSLLQAGRAEYWGQGTQVTVSS
notes: Tested as periplasmic extract; also called 4B1Θ
binding result (human serum albumin [5]): binds

B6: 1D2 (VHH)
VHH: EVQLVESGGGLVQPGGSLRLSCAASGFTLDYYAIGWFRRAPGKEREGVSCTSSSDGSTYYADSVKGRFTISRDNAKNTVYLQMNSLKPEDTAVYYCATTFGDACTVVAGIPDQYDFGSWGQGTQVTVSS
binding result [6]: binds | binding result [3]: binds

B7: 4D9 (VHH)
VHH: EVQLVESGGGLVQPGGSLRLSCAASGFTLDYYDIGWFRQAPGKEREGVSCTSSSDGSTYYADSVKGRFTISRDNAKNTVYLQMNSLKPEDTAVYYCATTFGDACTVVAGIPDQYDFGSWGQGTQVTVSS
notes: Purified Nanobody
binding result [3]: binds

B8: 4C4 (VHH)
VHH: EVQLVESGGGLVQAGDSLRLSCAASGRPFMSYVMGWFRRAPGKEREFVGGINWGSGNTWYTDSVLGRFTISRDNAKNTVYLQMNSLKPEDTAVYYCATAAGVGYYRYERQYDYWGQGTQVTVSS
notes: Tested as periplasmic extract
binding result (human serum albumin [4]): binds

B9: 4C5 (VHH)
VHH: EVQLVESGGGLVQAGDSLRLSCAASGRPFSAYVMGWFRRAPGKEREFVGGINWNSANTWYTDSVLGRFTISKDNAKNTVYLQMNSLKPEDTAVYYCAAAGGVGYYRYERQYDYWGQGTQVTVSS
notes: Tested as periplasmic extract; also called 4CS
binding result (human serum albumin [4]): binds

B10: 4C8 (VHH)
VHH: EVQLVESGGGLVQAGDSLRLSCAASGRTYTPYVMGWFRRAPGKEREFVGAVSWSGTNTWYTDSVKGRFTISRDNAKNTVYLQMNSLKPEDTAVYYCAAGDGVGIYRYEHQYDYWGQGTQVTVSS
notes: Tested as periplasmic extract
binding result (human serum albumin [4]): binds

B11: 4A6 (VHH)
VHH: EVQLVESGGGLVQPGGSLRLSCAASPFTLDYYAIGWFRQAPGKEREGVSCSTSHGKTYHADSVKGRFTISRDNAKNTVYLQMNSLKPEDTAVYYCAAGACMGGSGYEADFGSWGQGTQVTVSS
notes: Tested as periplasmic extract; also called 4Aό
binding result (human serum albumin [4]): binds

B12: 4B1 (VHH)
VHH: EVQLVESGGGLVQPGGSLRLSCVAAGFTLDYYAIGWFRQAPGKEREGVSCITSDGRTYYADSVKGRFTISRDMAKKMVYLQMNSLKPEDTAVYYCAAGACMGGSGYEADFGSWGQGTQVTVSS
notes: Tested as periplasmic extract; also called 4Bl
binding result (human serum albumin [5]): binds

B13: 1E7 (VHH)
VHH: EVQLVESGGGLVQAGGSLRLSCAASGRTFSNYVMGWFRQAPGKEREFVAAISWSGVTTYHYSADSVKGRFTTSRDNDRNTAHLQMNSLKPEDTAVYYCAARGRTGSDPRKGDDYDYWGQGTQVTVSS
binding result [6]: binds | binding result [3]: binds

B14: 4B8 (VHH)
VHH: EVQLVESGGGLVQAGGSLRLSCAASGGTYSGNAMAWFRQAPGKEREFVAGIDWSSENTRYIDSVKGRFTISRDNAKNTMYLQMNSLKPEDTAVYYCAAGTSWGALASRLEAAYSSWGQGTQVTVSS
notes: Tested as periplasmic extract
binding result (human serum albumin [4]): binds

B15: 4B5 (VHH)
VHH: EVQLVESGGGLVQAGDSLRLSCAASGRTYSRNAMAWFRQAPGKEREFVAGIDWSSENTRYIDSVKGRFTISRDNAKSTMYLQMNSLKPEDTAVYYCAAGTSWGALASRLEAAYSSWGQGTQVTVSS
notes: Tested as periplasmic extract
binding result (human serum albumin [4]): binds

B16: 4B6 (VHH)
VHH: KVQLVESGGGLVQVGGSLRLSCVASGRTYGGNAMAWFRQAPGKEREFVAGIDWSSENTRYTDSVKGRFTISRDNAKNTMYLQMNSLKPEDTAVYYCAAGTSWGALASRLENAYSAWGQGTQVTVSS
notes: Tested as periplasmic extract
binding result (human serum albumin [4]): binds

B17: 4C9 (VHH)
VHH: EVQLVESGGGLVQAGDSLRLSCTASERPFSTYVMGWFRRAPGKEREFVGGITWSGINAWYTDSVLGRFTISSDNAKNTVYLQMNSLKPEDTAVYYCAAASGVGRYRYELQYDYWGQGTQVTVSS
notes: Tested as periplasmic extract
binding result (human serum albumin [4]): binds
